Laboratory results from patent publication US8486893B2, “Treatment of conditions involving demyelination” (Biogen Idec MA Inc., priority 2004, dated 2013).

Legend:
[1] = test system: RhoA-GTP; assay: RhoA-GTP levels in oligodendrocyte lysates by western blotting; type: cell-based, rat; settings: FIG. 9A
From the text: A strong candidate signaling pathway that is implicated in the control of oligodendrocyte differentiation is the Rho family of GTPases. Rho GTPases regulate cellular morphology, and reduced RhoA-GTP amounts are required for oligodendrocyte differentiation. See Liang, X, et al., J. Neurosci. 24:7140-7149 (2004). To determine whether Sp35 signals through the RhoA pathway, RhoAGTP levels in cell lysates of oligodendrocytes treated with Sp35-Fc were compared with levels in the corresponding control via western blotting.

[2] = test system: co-cultures of dorsal root ganglion (DRG) neurons and oligodendrocytes; assay: In vitro myelination in co-cultures of DRG neurons and oligodendrocytes; type: cell-based, rat
Experimental: The role of Sp35 in myelination was examined in vitro by treating co-cultures of dorsal root ganglion (DRG) neurons and oligodendrocytes with Sp35-Fc and testing for myelination by immunohistochemistry and electron microscopy. For these studies, it was necessary to first generate primary cultures of DRG neurons and of oligodendrocytes.
Female Long Evans rat E14-E17 embryonic dorsal root ganglia were cultured as described by Plant et al., J. Neurosci. 22:6083-91 (2002). Dissected DRGs were plated on poly-L-lysine-coated cover slips (100 μg/ml) for 2 weeks in the presence of fluorodeoxyuridine for days 2-6 and days 8-11 in NLA medium containing 1× B27, 100 ng/ml NGF (Invitrogen).
A2B5^+ oligodendrocytes were prepared as described in Example 1, and were harvested by trypsinization.
For coculture studies, A2B5^+ oligodendrocytes were added to DRG neuron drop cultures in the presence or absence of 10 μg/ml Sp35-Fc. The culture medium (Neurobasal medium supplemented with B27 and 100 ng/ml NGF) was changed, and fresh Sp35-Fc was added to the cells every 3 d. To identify changes in myelination, 2-week-old cultures were stained by immunohistochemical staining (“IHC”) for neurofilaments with anti-βIII-tubulin antibody to identify axons, or anti-MBP antibody to identify oligodendrocytes., and 4-week-old cultures were subjected to SDS-PAGE followed by western blot analyses to quantify the MBP. In selected examples, cells were fixed for electron microscopy studies by adding 2.5% gluteraldehyde directly onto the cover slips. Myelinated axons in the 2-week-old cultures were quantified by counting the number of myelinated internode bundles that were derived from single MBP^+ oligodendrocytes. Samples were analyzed in duplicate. Error bars denote individual determinations. P values in all studies were determined using a one-way analysis of variance.
Several peptides containing portions of the Ig domain of Sp35 were examined in vitro, by treating co-cultures of dorsal root ganglion (DRG) neurons and oligodendrocytes with Sp35 Ig peptides and testing for myelination as described in Example 5.
For co-culture studies, A2B5^+ oligodendrocytes were added to DRG neuron drop cultures in the presence or absence of 10 μg/ml Sp35-Ig-Fc (Sp35 amino acids 417-493 fused to Fc). The culture medium (Neurobasal medium supplemented with B27 and 100 ng/ml NGF) was changed, and fresh Sp35-Ig-Fc was added to the cells every 3 d. To identify changes in myelination, 2-week-old cultures were stained by immunohistochemical staining (“IHC”) for neurofilaments with anti-βIII-tubulin antibody to identify axons, or anti-MBP antibody to identify oligodendrocytes and 4-week-old cultures were subjected to SDS-PAGE followed by western blot analyses to quantify the MBP.
We performed experiments to address the relative contributions to the myelination process of Sp35 in DRG neurons as compared to oligodendrocytes. We infected DRG neurons, oligodendrocytes and co-cultures (prepared as described in Example 5) with the FL-Sp35 and DN-Sp35 lentiviral vectors described in Example 1 and performed immunohistochemical straining for myelinated MBP cells after two weeks. A 2-fold increase in MBP levels in co-cultures where both cells express DN-Sp35 and a 2-fold decrease in MBP levels in co-cultures where both cells express FL-Sp35 was observed (FIG. 10G).

[3] = test system: differentiated PC12 cells; assay: Apoptotic cell death in differentiated PC12 cells after NGF withdrawal (cell death ELISA / TUNEL); type: cell-based
Experimental: (§1) PC12 cells (Neuroscreen) were differentiated in RPMI-1640 medium supplemented with 5% fetal bovine serum, 10% horse serum, 2 mM glutamine, 100 U/ml penicillin and […] streptomycin containing 200 ng/ml NGF for 7 days. For experiments, the culture media was replaced with NGF-free culture media containing Sp35-Fc, human IgG as a negative control (0.1-10 μM), or zVAD as a positive control (0.1 μM). 18 hours after NGF withdrawal, activated Caspase-3 was quantified using the Caspase 3/7 Glo kit (Promega) according to the manufacturer's instructions. 42 hours after NGF withdrawal, apoptotic cell death was quantified using a cell death detection ELISA kit (Roche) according to the manufacturer's instructions.

[4] = test system: Caspase-3; assay: Caspase-3 activation in differentiated PC12 cells after NGF withdrawal (Caspase 3/7 Glo); type: cell-based
Experimental: as §1

B1: Sp35-Fc: extra-cellular portion of human Sp35 (residues 1-532) fused to the hinge and Fc region of human IgG1 (protein)
chain: TGCPPRCECSAQDRAVLCHRKRFVAVPEGIPTETRLLDLGKNRIKTLNQDEFASFPHLEELELNENIVSAVEPGAFNNLFNLRTLGLRSNRLKLIPLGVFTGLSNLTKLDISENKIVILLDYMFQDLYNLKSLEVGDNDLVYISHRAFSGLNSLEQLTLEKCNLTSIPTEALSHLHGLIVLRLRHLNINAIRDYSFKRLYRLKVLEISHWPYLDTMTPNCLYGLNLTSLSITHCNLTAVPYLAVRHLVYLRFLNLSYNPISTIEGSMLHELLRLQEIQLVGGQLAVVEPYAFRGLNYLRVLNVSGNQLTTLEESVFHSVGNLETLILDSNPLACDCRLLWVFRRRWRLNFNRQQPTCATPEFVQGKEFKDFPDVLLPNYFTCRRARIRDRKAQQVFVDEGHTVQFVCRADGDPPPAILWLSPRKHLVSAKSNGRLTVFPDGTLEVRYAQVQDNGTYLCIAANAGGNDSMPAHLHVRSYSPDWPHQPNKTFAFISNQPGE
modifications: left off: a dimerising Fc or GST
notes: extra-cellular portion of human Sp35 (residues 1-532) fused to the hinge and Fc region of human IgG1
- RhoA-GTP amount versus control [1]: threefold reduction
- expression of MBP by western blot ([2]; 4-week-old treated cocultures, 10 μg/ml for Fc fusions): increased
- confocal microscopy of myelination ([2]; Sp35-Fc treated cocultures): MBP had encapsulated the axons
- electron microscopy of myelination ([2]; cocultures treated 4 weeks, FIG. 10C): Multiple wellformed internodes
- effect on myelination when both cell types overexpress DN-Sp35 ([2]; exogenously added): slight effects
- effect on myelination when either cell type overexpresses DN-Sp35 alone ([2]; exogenously added): further enhanced myelination
- effect on myelination in cocultures overexpressing FL-Sp35 ([2]; exogenously added, FL-Sp35 in either or both cell types): reversed the inhibition of myelination
- axonal myelination (MBP+ myelinated axons) ([2]; treatment for 2 weeks, IHC, FIG. 10A): robust axonal myelination
- cells undergoing apoptosis (TUNEL assay) ([3]; 18 hours after NGF withdrawal, FIG. 13 legend): fewer cells undergoing apoptosis
- cell death (TUNEL ELISA) ([3]; 42 hours after withdrawal of NGF, FIG. 13): significantly reduced cell death
- Caspase-3 activation ([4]; 0.1 μM, 18 hours after removal of NGF): reduced Caspase-3 activation
- dose dependence of effect on Caspase-3 activation ([4]; 0.1-10 μM, 18 hours after NGF withdrawal): dose-dependent
- effect on Caspase-3 activation compared with zVAD (0.1 μM) ([4]; 1 or 10 μM, FIG. 14): as effective as a neuroprotective dose of the caspase inhibitor zVAD
